# Measurements: the DeepSol protein solubility set
# Test: soluble on expression in E. coli; label from the status in PepcDB or PDB records
row,Sequence,soluble on expression in E. coli
1,MHRGITVQTSDLDDGVTGVVGKVYIEASPKHVWAAITDYNNHKSFVPKLIDSGLISDNGREQVMFERGKTGIFLFRKTVYIKLSLQGEYPKRLDFHQIEGDFKVYEGDWLIERASDGKGSILTFRAKIKPDFFAPAMFVRKVQQNDLPLEHHHHHH,soluble
2,MSLRAKVTTKKYSVCEAPKVSEEELLSALVDRHKGKVQFIDFWATWCGGCRRTIKEYEPIKKELGENVAFVYLTGPSSIEKTWKILIQDIVGEHYWLNEKQWGYLWKHFQMKGLPMYLVIDKQGNIVKRFTHVTRKELEELLKQEINKEGHHHHHH,soluble
3,MTKCPKCKKIMLTKELDKNMRVCMNCDYHFPMNAKQRIESLMDEQSFEEFNQGMLSENPLGFPGYLEKLEKDREKTSLNEAVVTGKGTIGGHPAVVAVMDSSFRMGSMGSVVGEKITLAIEKAKADKVPFIIFTASGGARMQEGVLSLMQMAKTSSALKLFSEEQGLIISVMTHPTTGGVSASFASLGDYNFAEPGALIGFAGRRIIEQTIGEKLPEDFQTAEFLLKHGQLDAVIHRDDMKKTLENLLDMHQTGGDIEWLQDLEHHHHHH,not soluble
4,MGSDKIHHHHHHMSKVVKFGGSSVANSEQFKKVKQIILADPDRKYVVTSACGKSGQEDHKVTDLLYLCAAHITYDVSYESIFQSIVDKYMEIKRSLGLKIDLAGEFAKIRQNMAQNLNLDYLVSRGEYLTGLCLAEYLDADFRDASQVIRFHYDGSIDLDKSQELLKAQVDPGRRVVIPGFYGSLPNGVIKVMSRGGSDITGSIVANAFDVDVYENWTDVSGFYVADPRIIKDPVQIPRVTYSELRQMSYMGANVLHDDAVFPVRQKNIPINVRNTNHPENPGTMIMNDCSELDAQERPHVITGITGKQDFTVITMVKSHVSAEAGFLRKVLAVFEKFQISIESVPVTVDTFSIVVQTKKIERYLYEIVAELQQDLHLDDIQVESQQAMLAVVGRAMRQMPGMSGKILSTLGDQQINIRTINQACDEQSIVIGVNNQDLVPAIKAIYQQFISEERVER,not soluble
5,CTRAVYLGPDRMVVTGRTMDWKEDIMSNIYVFPRGMQRAGHNKEKTVNWTSKYGSVIATGYDIGTCDGMNEKGLVASLLFLPESVYSLPGDTRPAMGISIWTQYVLDNFATVREAVDEMKKETFRIDAPRMPNGGPESTLHMAITDETGNTAVIEYLDGKLSIHEGKEYQVMTNSPRYELQLAVNDYWKEVGGLQMLPGTNRSSDRFVRASFYIHAIPQTADAKIAVPSVLSVMRNVSVPFGINTPEKPHISSTRWRSVSDQKNKVYYFESTLTPNLFWLDLKKIDFSPKAGVKKLSLTKGEIY,not soluble
6,MDDSQESSFSVSKYETNDDGSMGQFISINECEREIQMLERDIRQQKESSANAKTAITFDQLRKIHTLSTLLGPHKELFFDRICRAADIQRASLKNRLKSNINKFEPSTPLSFQPGFDSQSSLSTTSESQNFVVTPTTLSSLLNNHTRKNHIEMLAPLASEEELMRFPAERQFDLMQIGFSYDEVKQLLEMFEKFKNDVQEINRLHTLTQILNQFCNYISMYAPPNLKMISSAFNLLELGNSAHEVKRVLLKARRREESEESDVSFSKKPRPSSRSPASPNRDDLLLGLDRSPPSDDGTQKV,not soluble
7,FQDVTNTPVEGMKPYTALQLEGRDIYIREGCVGCHSQMIRPFRAETERYGHYSVAGESVWDHPFLWGSKRTGPDLARVGSRYSDDWHRAHLFNPRNVVPESKMPAYPWLVENKLDGKDIEKKLEVMRTLGVPYTDEDIKGAKDSLKGKTEMDAVVAYLQVLGTSIK,not soluble
8,MGSDKIHHHHHHMNSMDATAAHHTSPNATLVYDIRHSRYLNITGRCTLRCGFCPKQQGSRQIHQYQLALDKQPGVDDLLPLLGDVDTFDEYVFCGYGEPTLNLPTLLGVARAIKSQGGRIRVNTDGLGNLFHKRNILPELADCVDALSVSLNAQDEFTYLKHCQPRLKGSWQAVNDFIRMAPAYIKRVEVSAIDGLPGVDIPACRALVEAAGCTFKHRKLDIMG,not soluble
9,QMAGIYQALANDGQRIEPRIIEKVVDSSGNEVEQQPPAETRVVSAQTARTVVDMFRGVVQKDPTGINSGTGAGAAVDGYQVSGKTGTAQQVDPNTGAYSNSNYWITFAGIAPADNPRFVVALMLDKPHRGVHGEGGQSAAPLFHDIASWILDRDNVPLSPPMEGQLVLQAQ,not soluble
10,MSLSRPRSVADHPMINPRLIALPDYPFQRLATLLAGVAPGADPLALSVGEPQHPTPALAGLELARHGDQWRRYPPAAGNERWKAAVTAWLTRRYGLPAAMIDPHAVIPASGTREALYMLGQVLTDGRGEAGERPLVVMPDPLYLPYLGAARMNGATILAVPGSEEGDFLPDIAGLPAATLERAAAVFVCSPANPQGSIVSLESWKTLVGLARRHGFVLVADECYSEIYDDQPPPGVLEACRDLGGSLKNVLVLNSLSKRSNGAGLRSGLIAGDRALIDAFLRLRAYASAGMPLPIMEASAALWDDETHVEANRALYREKIDLAAARLKGMLGFRRPPGGFFLWLDTTPWGETGEQATLRLWRDHGLKVLPGAYMTANPDAGDNPARNRLRLALVHDGPVVARALDRLVAASPHEGHHHHHH,soluble
11,MGSDKIHHHHHHMQQAQLPLEAILYQYDLYPEAVEDHGENVKKLVTKHGLFALKKTQMTRSQADWFVYCMRKLDRLGYRKVVPLVPTKFGEYTLTDRDTSFYVMPWIESIPYNARESQEEKLADQLGVIHRLTVKTQPFSKEQLEASYNELRDRWDSRWLTMNRFADQAERKTYMSPYELTLLTHFSFLEHMAHTAKESLEAWYETCLEKEKYRSVLCHGRLSRAHAFFNERHEPLLFNFERAALDTPARDLASFFRHSFPHALWSEEEGHRWLYRYEQHLPLLEEEKRLLHAYLSFPDPVIYGIEAYQQQSGPPSEVKHVKRLEKRLLNLRRVERFSKSLLPTPAINESGLS,not soluble
12,GHMPGRAPGSTLARVGSIPAGDDVLDPDEPTYDLPRVAELLGVPVSKVAQQLREGHLVAVRRAGGVVIPQVFFTNSGQVVKSLPGLLTILHDGGYRDTEIMRWLFTPDPSLTITRDGSRDAVSNARPVDALHAHQAREVVRRAQAMAY,soluble
13,MGSDKIHHHHHHMIFFNKDEQLENIGNGILDATWAAFPTLARNQIALTWVVYDPPVRVNTGGALTPNAFWDHPVRGFTYRGVERIYPASVVKLFYLVAVNEWLEKGMSQTSKELERALRDMIVDSSNDATSLVVDILSGTTSGPELPTGPFETWKYQRNIVNRYYQSLGWEEMETINVCQKTWGDGPYGRERAFAGELLENRNMLTTNAIARLLHSIVGGVAVSSARSQAMMALLKRPLNDLPTDTEENQVTGFLGGGLPQNAQIWSKAGWTSQVRHDAAYIELPEQRPYLLVVFTEGKAQAKSQAILPFVSQQVADAISSL,not soluble
14,MGSDKIHHHHHHMDINTKNLKKNAFRVTKRRGITASRIRVPGGHLEAKFLSMIQNIAENYGDGSVHITSRQGFEIPGIKFEDMPKVNELLQPIIEGLNINQETALQGYSASGTRNITACVGNRVCPYGCYDTTSFAQRIEKAVFPHDLHFKIALTGCPNDCAKVRMHDFGIMGMTEPHYESDTCVSCGACVKVCKKKSVGALSAVNYKVVRRGEKCIGCGECVLKCPTGAWTRSEKTYYRLTLLGRTGKKNPRLGEDFIKWVDEDSIIKIILNTYDYVTKYIDPNAPGGKEHIGYIVDRTGFEEFKKWALKDVKLPSIAEVYTPIYWNGIKY,not soluble
15,MTEFELPPKYITAANDLRSDTFTTPTAEMMEAALEASIGDAVYGEDVDTVRLEQTVARMAGKEAGLFCVSGTLSNQIAIRTHLMQPPYSILCDYRAHVYTHEAAGLAILSQAMVVPVVPSNGDYLTLEDIKSHYVPDDGDIHGAPTRLISLENTLHGIVYPLEELVRIKAWCMENGLKLHCDGARIWNAAAQSGVPLKQYGEIFDSISICLSKSMGAPIGSVLVGNLKFVKKATHFRKQQGGGIRQSGMMARIALVNINNDWKSQLLYSHSLAHELAEYCEAKGIPLESPADTNFVFINLKAARMDPDVLVKKGLKYNVKLMGGRVSFHYQVTRDTLEKVKLAISEAFDYAKEHPFDCNGPTQIYRSESTEVDVDGNAIREIKTYKY,soluble
16,MNASAPIPLNETQRLLRIQELCVLEDTSDEVFDEIVAMTAEFFQTPIALVSIVDEHRQWFRARVGLSARETPRNVSFCAYTILSDTLFEIPDATLDERFMNNSLVTGHPDIRYYAGAPLITDDGLALGSLCVIDTKPREPMSEHQTQMLKRFASLVMKRIVSLRL,not soluble
